Assay results: patent publication US6774106 (Amgen, dated 2004)

Tests used:
[1] = biological target: T1, human TACI expressed on 293 cells (phTACI vector) (human, UniProt O14836 1-293); test: FACS on transfected 293 cells, G70/APRIL-Flag then FITC anti-Flag antibody
T1 construct: also called hTACI gene
T1 sequence: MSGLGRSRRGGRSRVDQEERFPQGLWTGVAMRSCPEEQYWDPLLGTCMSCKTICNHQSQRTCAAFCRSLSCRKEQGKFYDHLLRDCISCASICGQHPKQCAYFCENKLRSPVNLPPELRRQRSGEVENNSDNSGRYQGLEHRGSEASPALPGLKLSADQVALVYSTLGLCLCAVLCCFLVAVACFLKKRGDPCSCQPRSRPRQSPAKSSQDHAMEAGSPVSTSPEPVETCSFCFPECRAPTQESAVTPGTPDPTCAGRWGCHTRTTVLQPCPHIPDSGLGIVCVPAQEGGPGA
Procedure: (§1) FIGS. 14A, 14B and 14C show soluble mouse G70/APRIL binding to 293 cells expressing the BCMA gene. Human 293 cells transfected with the pmBCMA and pcDNA3 vectors were incubated with G70/APRIL-Flag, followed by FITC-conjugated anti-Flag antibody staining for FACS analysis. A. 293 cells transfected with pcDNA3 vector only. B. 293 cells transfected with antisense pmBCMA vector. C. 293 cells transfected with sense pmBCMA vector.
(§2) Human 293 cells transfected with the phTACI and pcDNA3 vectors were incubated with G70/APRIL-Flag, followed by FITC-conjugated anti-Flag antibody staining for FACS analysis.

[2] = biological target: T2, mouse BCMA expressed on 293 cells (sense pmBCMA vector) (mouse, UniProt O88472 1-185); test: as above
T2 construct: also called exogenous BCMA; BCMA gene
T2 sequence: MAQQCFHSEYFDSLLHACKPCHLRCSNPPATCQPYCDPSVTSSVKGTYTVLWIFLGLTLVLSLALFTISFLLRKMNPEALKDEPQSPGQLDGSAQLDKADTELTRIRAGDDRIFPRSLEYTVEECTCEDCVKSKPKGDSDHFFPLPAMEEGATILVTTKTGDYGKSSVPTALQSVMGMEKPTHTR
Procedure: as §1, §2

B1: Soluble murine APRIL-Flag protein (FLAG-tagged soluble mouse APRIL) (ligand)
chain: MDYKDDDDKKHKKKHSVLHLVPVNITSKDSDVTEVMWQPVLRRGRGLEAQGDIVRVWDTGIYLLYSQVLFHDVTFTMGQVVSREGQGRRETLFRCIRSMPSDPDRAYNSCYSAGVFHLHQGDIITVKIPRANAKLSLSPHGTFLGFVKL
notes: also called Flag-APRIL; Flag-mAPRIL
binding result [1]: binds
binding result [2]: binds
